Positions count from the first letter of the chain named. Names and notes keep the numbering of the source. Blank lines part the entries; values can stand above or below the binder they belong to.
Legend:
[1] = target: T1, pituitary adenylate cyclase-activating peptide, 38-amino acid peptide (PACAP38) (human, not fully specified); test: SPR (Biacore), 37 C, antibody captured by anti-human IgG Fc, PACAP-38 as analyte
T1 construct: The background calls the active forms alpha-amidated
T1 peptide: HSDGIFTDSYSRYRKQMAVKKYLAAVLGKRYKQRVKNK
Method: (§1) In brief, antibody and peptide interaction was determined on a Biacore S200 (GE Healthcare) by method previously described (Andreu and Gomes 2002). An anti-Human IgG Fc capture antibody was immobilized on a CM5 biosensor chip via standard amine coupling. Anti-PACAP antibodies were injected and captured to 200 to 400 response units (RU),). PACAP38, PACAP27 and VIP were diluted in HBS-EP+buffer containing 0.1% w/v BSA (Bovostar, catalog number BSAS1.0) and 0.15 M NaCl (Sigma-Aldrich catalog number S7653), pH 7.4. Binding kinetics of antibodies were determined by injection of two-fold serial dilutions of PACAPs (12 nm to 0 nM) and VIP (1200 nM to 0 nM) in running buffer at 37° C. with a flow rate of 40 uL/min for 2 min followed by a dissociation for 10 minutes. For subsequent cycles, the chip was regenerated using 0.85% phosphoric acid. Data was analysed with the Biacore S200 Evaluation Software (ver 1.0). Association rate (kₐ) and dissociation rate (kd) constants were determined using a simple one-to-one Langmuir binding model and used to calculate the equilibrium dissociation constant (KD).

[2] = target: T1, pituitary adenylate cyclase-activating …; test: cell-based or functional assay
[3] = target: T2, Growth Hormone Releasing Factor (GRF or GHRF); test: SPR (Biacore), captured antibody, 37.5 nM peptide injected at 37 C, relative response after 15 sec dissociation
T2 construct: the listing entry is to be used
T2 peptide: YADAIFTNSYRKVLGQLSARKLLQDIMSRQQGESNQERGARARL
Method: (§2) The anti-PACAP antibodies, e.g., 890C, were tested against related peptides in the Secretin Glucagon family (Table 10) to determine the presence and extent of any off-target binding. Nine bioactive peptides in the glucagon superfamily are: PACAP, VIP, glucagon, Glucagon-Like Peptides (GLP-1, GLP-2), Growth Hormone Releasing Factor (GRF or GHRF), Peptide Histidine Methionine (PHM), secretin, and Gastric inhibitory polypeptide (GIP). Following capture of antibodies as described in example 4, the antibody and the peptide interaction was measured by injection of 37.5 nM of each peptide diluted in buffer at 37° C. with a flow rate of […] for 2 min followed by a dissociation phase of 4-5 min. Samples were injected in a multi-cycle manner over freshly captured anti-PACAP antibody, by regenerating the capture surfaces with two injections of 0.85% phosphoric acid at a flow rate of 30 μL/min.
(§3) The selectivity of antibody 890C was assessed by comparing the inhibition of PACAP38-signalling to inhibition of VIP-signalling in a cyclic AMP (cAMP) measuring cell-based functional assay.

[4] = target: T3, Gastric inhibitory polypeptide (GIP); test: as above
T3 peptide: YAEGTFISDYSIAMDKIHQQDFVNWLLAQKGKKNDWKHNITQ
Method: as §2, §3

[5] = target: T4, Glucagon-Like Peptide 1 (GLP-1); test: as above
T4 peptide: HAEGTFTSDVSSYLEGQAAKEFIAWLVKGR
Method: as §2, §3

Glucagon = test: as above
Method: as §2, §3

[6] = target: T5, Glucagon-Like Peptide 2 (GLP-2); test: as above
T5 peptide: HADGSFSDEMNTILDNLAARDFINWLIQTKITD
Method: as §2, §3

Secretin = target: T6, Secretin; test: as above
T6 construct: the listing entry is to be used
T6 peptide: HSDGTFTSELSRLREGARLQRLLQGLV
Method: as §2, §3

[7] = target: T7, Peptide Histidine Methionine (PHM); test: as above
T7 peptide: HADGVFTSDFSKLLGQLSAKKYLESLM
Method: as §2, §3

[8] = target: T8, vasoactive intestinal peptide (VIP) (human); test: cell-based or functional assay
T8 peptide: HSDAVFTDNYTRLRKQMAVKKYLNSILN

[9] = target: T1, pituitary adenylate cyclase-activating …; test: cell-based or functional assay
[10] = target: T1, pituitary adenylate cyclase-activating …; test: SPR; target PACAP38
Method: as §1, §3

[11] = target: T1, pituitary adenylate cyclase-activating …; test: cell-based or functional assay
[12] = target: T1, pituitary adenylate cyclase-activating …; test: SPR (Biacore) off-rate ranking, antibody captured from supernatant, single injection of 33.3 nM PACAP38
Method: as §1, with “Binding kinetics of antibodies were determined by injection of two-fold serial dilutions of PACAPs (12 nm to 0 nM) and VIP (1200 nM to 0 nM) in running buffer at 37° C. with a flow rate of 40 uL/min for 2 min followed by a dissociation for 10 minutes.” left out

[13] = target: T1, pituitary adenylate cyclase-activating …; test: cell-based or functional assay
[14] = target: T9, pituitary adenylate cyclase-activating peptide, 27-amino acid peptide (PACAP27) (human, not fully specified); test: SPR; target PACAP27
T9 peptide: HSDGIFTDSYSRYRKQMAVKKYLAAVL
Method: as §1, §3

[15] = target: T8, vasoactive intestinal peptide (VIP); test: SPR; target VIP
Method: as §1, §3

[16] = target: T9, pituitary adenylate cyclase-activating …; test: SPR (Biacore S200), 37 C, captured antibody, two-fold dilutions of peptide, 1:1 Langmuir model
[17] = target: T1, pituitary adenylate cyclase-activating …; test: as above
[18] = target: T8, vasoactive intestinal peptide (VIP); test: SPR (Biacore S200), 37 C, captured antibody, steady state binding

Chain of Glucagon (peptide, as listed by the source): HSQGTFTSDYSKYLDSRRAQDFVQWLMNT

- Kd [1]: 0.0284 nM
- koff [1]: 0.000671 s⁻¹
- kon [1]: 2.36e+07 M⁻¹ s⁻¹
- IC50 (nM), PACAP-induced cAMP accumulation in CHO-K1 receptor cell lines (cAMP-Glo) [2]: 0.32 nM
- binding result [3]: no binding (tested: 37.5 nM)
- binding result [4]: no binding (tested: 37.5 nM)
- binding result [5]: no binding (tested: 37.5 nM)
- binding result (Glucagon): no binding (tested: 37.5 nM)
- binding result [6]: no binding (tested: 37.5 nM)
- binding result (Secretin): no binding (tested: 37.5 nM)
- binding result [7]: no binding (tested: 37.5 nM)
- IC50 (read off the curve), VIP-induced cAMP production in CHO-K1 cells expressing VPAC1 [8]: ~600 nM
- fold shift of the VIP/VPAC1 inhibition curve relative to the PACAP/PAC1 inhibition curve (selectivity) [8]: 1400 fold
- IC50 (read off the curve), PACAP38-induced cAMP production in CHO-K1 cells expressing PAC1 [9]: ~0.4 nM
- Kd [10]: 0.054 nM
- IC50 (nM), inhibition of PACAP-induced cAMP accumulation [11]: 0.32 nM
- Kd [12]: 0.0284 nM
- koff [12]: 0.000671 s⁻¹
- kon [12]: 2.36e+07 M⁻¹ s⁻¹
- selectivity, inhibition of PACAP38-induced cAMP production (PAC1 cells) versus VIP-induced cAMP production (VPAC1 cells) [13]: > 1000 fold
- Kd [14]: 0.218 nM
- Kd [15]: 390 nM
B1: anti-PACAP antibody 890C (antibody, human IgG4 S228P, kappa, V domains shown)
VH: EVQLVQSGAEVKKPGSSVKVSCKASGGTFSDVYMHWVRQAPGQGLEWMGLIYPIFADTRYAQKFQGRVTITADESTSTAYMELSSLRSEDTAVYYCAIDQDGSFAYWGQGTLVTVSS
VL: DIVMTQSPDSLAVSLGERATINCKSSQSLLDADGKTYLNWLQQKPGQPPKRLIYWASTRESGVPDRFSGSGSGTDFTLTISSLQAEDVAVYYCWQGTWFDLTFGGGTKVEIKR
notes: LC S(27E)A, G29, L50W, V51A, K53T, L54R, D55E, H93W, P95D

- Kd [1]: 0.017 nM
- koff [1]: 0.000566 s⁻¹
- kon [1]: 3.33e+07 M⁻¹ s⁻¹
- Kd [16]: 0.154 nM
- koff [16]: 0.00101 s⁻¹
- kon [16]: 6.58e+06 M⁻¹ s⁻¹
- Kd [17]: 0.0328 nM
- koff [17]: 0.000565 s⁻¹
- kon [17]: 1.72e+07 M⁻¹ s⁻¹
- Kd [18]: 225 nM
- IC50 (nM), inhibition of PACAP-induced cAMP accumulation [11]: 0.15 nM
- Kd [12]: 0.017 nM
- koff [12]: 0.000566 s⁻¹
- kon [12]: 3.33e+07 M⁻¹ s⁻¹
B2: anti-PACAP antibody 605C (antibody, V domains shown)
VH: B1 VH with V32S
VL: DIVMTQSPDSLAVSLGERATINCKSSQSLLDADGKTYLNWLQQKPGQPPKRLIYWASTRESGVPDRFSGSGSGTDFTLTISSLQAEDVAVYYCWQGTWFDLTFGGGTKVEIK
